Experimental data taken from patent US20210324374, “COMPOSITIONS AND METHODS FOR SCREENING APTAMERS” (Chan Zuckerberg Biohub, Inc., published 2021).

Target: VEGF (vascular endothelial growth factor) (UniProt P15692-4 P15692-4:27-191)
Assay: N2A2 flow-cell fluorescence, natural DNA
Settings: tags: Dylight 650 NHS labelled; R&D Systems; chain copies: 2
Text: We used N2A2 to measure the VEGF binding affinity of all sequences in these pools simultaneously. We performed three separate experiments: 1) VEGF binding to the natural DNA pools, 2) VEGF binding to non-natural DNA modified with tryptophan, and 3) VEGF binding to non-natural DNA modified with tyrosine. In addition to the six aptamer pools described above (R0-R5), we included three other DNA sequences on the flow cell for each experiment: (1) a known “fiducial mark” sequence with a fluorescently-labeled complement for intensity calibration, (2) a “positive control” sequence based on a published aptamer known to bind to VEGF, and (3) a “negative control” sequence known not to bind to VEGF. The same input DNA stocks and labeled VEGF protein were used for all three experiments, but new sequencing cartridges and flow cells were used for each separate experiment. Other details of experimental setup of the sequencing cartridge, protein titrations, and software and hardware modifications have previously been described in the provided grant document and manuscript. VEGF protein was labeled with Dylight647 fluorophore to enable imaging on the N2A2.

Chain of VEGF (vascular endothelial growth factor) (P15692 other isoform, or with tags, fused parts or gaps): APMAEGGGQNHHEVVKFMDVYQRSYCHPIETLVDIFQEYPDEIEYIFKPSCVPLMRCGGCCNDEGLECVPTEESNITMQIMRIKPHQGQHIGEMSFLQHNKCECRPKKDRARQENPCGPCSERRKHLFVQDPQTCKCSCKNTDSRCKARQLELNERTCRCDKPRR

B1: K SL2-B positive control (ssDNA)
DNA: AGCAGCACAGAGGTCAGATGAATTGGGCCCGTCCGTATGGTGGGTCCTATGCGTGCTACCGTGAA
binding result: binds
